Patent US20100021474

Biological target: Kunitz domain inhibitor KD1 derived from hepatocyte growth factor activator inhibitor-1B (HAI-1B) (UniProt O43278)
Sequence (O43278 246-303): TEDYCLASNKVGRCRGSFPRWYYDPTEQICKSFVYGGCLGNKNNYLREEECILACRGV

Chain of soluble form of HEPSIN comprising the entire extracellular domain (human HEPSIN Arg45-Leu417, His-tagged) (chain, as listed by the source): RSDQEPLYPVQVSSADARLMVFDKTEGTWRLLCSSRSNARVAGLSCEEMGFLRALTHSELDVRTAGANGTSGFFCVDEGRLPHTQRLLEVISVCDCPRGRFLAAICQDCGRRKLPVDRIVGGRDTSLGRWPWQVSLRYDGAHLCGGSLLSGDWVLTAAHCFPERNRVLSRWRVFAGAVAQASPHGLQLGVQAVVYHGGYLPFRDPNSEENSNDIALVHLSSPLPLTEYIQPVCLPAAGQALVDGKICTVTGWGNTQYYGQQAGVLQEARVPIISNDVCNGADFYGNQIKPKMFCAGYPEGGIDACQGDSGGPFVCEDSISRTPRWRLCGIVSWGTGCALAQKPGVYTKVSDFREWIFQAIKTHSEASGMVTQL

soluble form of HEPSIN comprising the entire extracellular domain (human HEPSIN Arg45-Leu417, His-tagged)
HEPSIN activity in a chromogenic substrate assay with the para-nitroanilide substrate S2366: completely inhibited HEPSIN activity at a concentration of 50 nM
